# Measured values: the supplement of paper PMC9170038
# Test system: MS2 coat protein
# Assay: apparent KD of MS2 coat protein; designed switch direction (-1 OFF switch, 1 ON switch): -1; higher = weaker reporter binding
# Procedure, shortened: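 Stalled E. coli RNA polymerase transcribed designed RNA switches on Illumina chips, which were then titrated with SNAP-549-labelled MS2 coat protein, doubling from 0.7 or 1.5 nM to 3 µM. Steps lasted from 0.8–1.5 h at the lowest concentration to 10–20 min at the highest. The apparent KD is each design's median over clusters of curve-fitted normalised fluorescence.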
# [1] = input ligand: microRNA oligo, concentration not stated
# [2] = Eterna round: R95, input ligand: FMN 200 uM
# [3] = Eterna round: R95, input ligand: microRNA oligo, concentration not stated
# [4] = Eterna round: R95, input ligand: none
Sequence,apparent KD of MS2 coat protein (input ligand: FMN 200 uM),apparent KD of MS2 coat protein (input ligand: none),apparent KD of MS2 coat protein [3],also measured
"UAAUUAAUAAGAUCAAUUAAUUAACAUGAGGAUCACCCAUGUGAGGAUAUCAGCUCGUGUAGAGCUGAGAAGGCACAAUAAUUA [ExNG3/17-C3] (Eterna round: R96, puzzle: Exclusion NG 3)",203 nM,51.9 nM,,apparent KD of MS2 coat protein [1]: 38.8 nM
"GGUCAACGUGUGAGGAUAUGUCAACCCUGUGGAAAGCAGAAGGCACAUGAGGAUCACCCAUGUAAUAAGAAAAC [Soasois] (Eterna round: R97, puzzle: Brourd's mod of Exclusion 4)",29.9 nM,262 nM,,
"AGGUCCUUCUGGAGACAUGAGGAUCACCCAUGUCGAGUCAGCGAGGAUAUCGGUUAAUAAUGUGAUGAGAAGGCGCGGACCGAU [Ex NG3 #54] (Eterna round: R96, puzzle: Exclusion NG 3)",41.5 nM,19.3 nM,,apparent KD of MS2 coat protein [1]: 11.6 nM
UAGAAACAUGAGGAUCACCCAUGUGAGGAUAUGAAAAAGAAAAGAAAAGAAAGAAGAAUCAGAAGGCACAAAGG [salish99-ex1_r3_082] (puzzle: Exclusion 1),,,35.8 nM,apparent KD of MS2 coat protein [2]: 38.1 nM; apparent KD of MS2 coat protein [4]: 28.7 nM
"GCGCGGUGAGGAUAUGCGGCGCGCGGGCGCGGGCGGGCGCGGCAGAAGGCACAUGAGGAUCACCCAUGUGGGCG [Prefect Exclusion4] (Eterna round: R97, puzzle: Exclusion 4)",109 nM,24.2 nM,,
"ACAUGUUAUCCAUGAUAUCACAUGAGGAUCACCCAUGUUAUGGCGAUUUUGAGGUGUAAGUUUUGUGCUCGUCUUAU [JR_STOV1_Sub057] (Eterna round: R97, puzzle: Sensor, turn-off variant 1)",80.1 nM,89.4 nM,,
CGUGCGUAUGUGAGGAUAUGCUGGUCCUUGGAUCGGCAGAAGGCACAUGAGGAUCACCCAUGUGGUGUCGUACU [salish99_Bmod_ex4_081] (puzzle: Brourd's mod of Exclusion 4),,,216 nM,
AGAUCACAUGAGGAUCACCCAUGUCAGGAUAUGAUACUAUGUACUUCGGUACAUAGUAUCAGAAGGGAUAUAAA [Ex1-3: 68] (puzzle: Exclusion 1),,,75.1 nM,
"GGCAUACCACAAGCUUUUUACAUGAGGAUCACCCAUGUGGUUUUUAGUCUUAUCCCGGGCCCGAUAUCGGGCCCGGG [-33.9, -54.7, A 19%] (Eterna round: R97, puzzle: Sensor, turn-off variant 1)",36.7 nM,38.3 nM,,
"UAAAACCGGUGAGGAUAUUUUUAAUAGAGCUUUAUGAUAUACAUGAGGAUCACCCAUGUUACGUUAAAGAAGGCAUCGGAAAAU [Mat - Exclusion NG 2 - Mod of JL - D99] (Eterna round: R96, puzzle: Exclusion NG 2)",13.7 nM,19.9 nM,,apparent KD of MS2 coat protein [1]: 14.5 nM
"CCUUGUCUGAAGGAUAUCCGCCUAAAAGGCAAGGGAGAAGGUUAGACAUGAGGAUCACCCAUGUGCCGGUGUAA [EX6 A.26] (Eterna round: R97, puzzle: Exclusion 6)",21.7 nM,25.1 nM,,
"CGCCUGUUAGGAUAUUAGUAGUAGUCAGAAUAGACUAUUACUGAGAAGGGACAUGAGGAUCACCCAUGUUGGCG [Eli x4 4.12] (Eterna round: R97, puzzle: Exclusion 4)",22.2 nM,18.8 nM,,
GGUUGGCGAGGAUAUACAUGAGGAUCACCCAUGUGAGAGAAAAAAGUGAGGAAGAAAAGUAGAAGGCGCUGACA [salish99_ex3_r3_046] (puzzle: Exclusion 3),,,43.9 nM,apparent KD of MS2 coat protein [2]: 188 nM; apparent KD of MS2 coat protein [4]: 54.1 nM
AAUAACAGAGGAUAUACUGUUUUAUGUGUUUAUUGUUUUAAACAUGAGGAUCACCCAUGUAGAAGGCUGAAUGA [JMF 58] (puzzle: Exclusion 2),,,36.4 nM,
"CUAUGUUAGCAGGAUAUGCCAUUAUUCUUUUUCGCAGAAGGGCUUACAUGAGGAUCACCCAUGUUACAUUUCUU [JR_E6_Sub086] (Eterna round: R96, puzzle: Exclusion 6)",42.6 nM,18.5 nM,,apparent KD of MS2 coat protein [1]: 14.9 nM
"CAGUACUGAGGAUAUACAUGAGGAUCACCCAUGUGUCUUCAAUUAGGAAACUAGUUAUGUAGAAGGCAGUACUG [Omei Ex3 Mod of Eli 4.27 v9] (Eterna round: R97, puzzle: Exclusion 3)",770 nM,62.2 nM,,
"GGAGAGGUAGGAUAUGGACCUUAGAACAUGAGGAUCACCCAUGUAGGACCACAUGAUUUGCGAGAAGGACCAGUCC [AK-MS2ROC-r4-exclusion5-7] (Eterna round: R97, puzzle: Exclusion 5)",363 nM,655 nM,,
"AUUGUUUAUGUAGGAUAUGCCUGGCGUGCCUUUGCAGAAGGACAUGAGGAUCACCCAUGUAACAUGAGGCUCACCCAUGUCGCA [salish99_ExNG1_r04_113] (Eterna round: R96, puzzle: Exclusion NG 1)",481 nM,429 nM,,apparent KD of MS2 coat protein [1]: 255 nM

Sequence,apparent KD of MS2 coat protein (input ligand: FMN 200 uM),apparent KD of MS2 coat protein (input ligand: none),apparent KD of MS2 coat protein [3],also measured
CUUUGACAUGAGGAUCACCCAUGUGAGGAUAUGAUGCGAUCGUCGAAAGACGAUAGCAUCAGAAGGCACAUAUG [Fiskers Ex 1 - 7] (puzzle: Exclusion 1),,,92.6 nM,
"AAUUAUUUUUGAGGAUAUGGUGGUGAAACACCACCAGAAGGCGAAAUAAACAUGAGGAUCACCCAUGUGAGCCUGAUGCUUAUG [Ex NG1 #48] (Eterna round: R96, puzzle: Exclusion NG 1)",,,,apparent KD of MS2 coat protein [1]: 19.9 nM
AAGGAUAGAGGAUAUACGUAGAUACAGAUUCAUGUAGAACUACAUGAGGAUCACCCAUGUAGAAGGCUAUCCUA [Fiskers Ex 2 - 6] (puzzle: Exclusion 2),,,26.5 nM,
CCAGCGCGUGUGAGGAUAUGCUGGUCCUUGGAUCAGCAGAAGGCACAUGAGGAUCACCCAUGUGAGUGCGUUGG [JL bmx4 3.35] (puzzle: Brourd's mod of Exclusion 4),,,16.2 nM,
"UUUAGUUUAGGAUAUGUAGAUUUUAACAUGAGGAUCACCCAUGUAGAUCCUGAAUUAACUACAGAAGGAAACAUUU [Mod of Brourd 13 - Jieux - Exclusion 5] (Eterna round: R97, puzzle: Exclusion 5)",514 nM,123 nM,,
CGUCCACAUGAGGAUCACCCAUGUUAGGAUAUAAACGCCGUAGUCCAAGGACGGGCCUUUAGAAGGAGCGCGGG [Onaredgeso] (puzzle: Exclusion 1),,,12.3 nM,
"CCACUGUCAGGAUAUCGUGCAUAAGCGUUUACACUUAUGUGCGAGAAGGGACAUGAGGAUCACCCAUGUAAACG [Omei Ex4 A28PK7] (Eterna round: R97, puzzle: Exclusion 4)",628 nM,391 nM,,
"GCACAGACAGGAUAUACAUGAGGAUCACCCAUGUGACCCUUAUAGUACUCGCGUACAAGUAGAAGGGUCUGUGC [Omei Ex3 Model Bachelor's Dilema v32] (Eterna round: R97, puzzle: Exclusion 3)",320 nM,832 nM,,
"GCUGGUCGAGGAUAUACAAUCGUGCUUCGGCACGUAAGGUCACAUGAGGAUCACCCAUGUAGAAGGUGACCAGC [E2/2-B1] (Eterna round: R97, puzzle: Exclusion 2)",57.7 nM,20.7 nM,,
"CGUGUAGGAGUAGGAUAUGCGUCUAGACUACGAGCAGAAGGACUCCAGGACUUGAGGAUCACCCAAGUGCGUCCCGAGCCGUAG [Mutated MS2 EX1.23] (Eterna round: R96, puzzle: Exclusion NG 1)",11.9 nM,12 nM,,apparent KD of MS2 coat protein [1]: 11.7 nM
CCUCGACAUGAGGAUCACCCAUGUCAGGAUAUUGUGUUUCGGGUUUUUUACCUUUAGGCAAGAAGGGAUGUGUG [LRO-Excl1-16] (puzzle: Exclusion 1),,,15.8 nM,
"GAAACCAGAGGAUAUGCGAAUAAAUAAAACUUUUUUUUUUAACAUGAGGAUCACCCAUGUAGAAGGCUGCAAAU [Ex2 #34] (Eterna round: R97, puzzle: Exclusion 2)",42.2 nM,32.7 nM,,
GAGGAGCAAGGAUAUACGAGGAUAGGGAAGUGAGGAGAGUGACAUGAGGAUCACCCAUGUAGAAGGUGCAAGGG [JR_Exclu2_Sub094] (puzzle: Exclusion 2),,,89.4 nM,apparent KD of MS2 coat protein [2]: 111 nM; apparent KD of MS2 coat protein [4]: 190 nM
"CCAAGAUAGGAAGGAUAUUGUACAUGAGGAUCACCCAUGUAAUAAAUGAGGAUCACGGAUGUAGACAAGAAGGUCCGGAUAAGC [Ostracism 5 - Jieux - Exclusion NG 2] (Eterna round: R96, puzzle: Exclusion NG 2)",84.1 nM,45.1 nM,,apparent KD of MS2 coat protein [1]: 25.1 nM
GCGUGACAUGAGGAUCACCCAUGUGAGGAUAUCUGGAUAAUUUUUAUUUUAGAUAUCCAGAGAAGGCACAUGCU [Ex1-3: 2Z] (puzzle: Exclusion 1),,,62.4 nM,
"UCAUGGUUAGAGGAUAUAUAAUUAGUCAGAACAAUAGAAGGCUAGACAUGAGGAUCACCCAUGUAUGUUGAGGU [JR_Ex6_Sub065] (Eterna round: R97, puzzle: Exclusion 6)",42.6 nM,89.4 nM,,
"ACAACAAGCUUUUUGUUCGUAGAACAUGAUGCUCUAGUCACAUGAGGAUCACCCAUGUCAGCCAGUUAGAUAGGUGA [JR_SV3TOV2_Sub064] (Eterna round: R96, puzzle: Sensor v3, turn-off variant 2)",96.7 nM,86 nM,,apparent KD of MS2 coat protein [1]: 133 nM
